Measured values published in patent EP4717714A1 (Shanghai Junshi Biosciences Co., Ltd., dated 2026).

Columns and labels:
[1] = molecular target: T1, Recombinant human PD-1 (prepared by Suzhou Junmeng Biopharm Co., Ltd. according to the sequence of NCBI … (human, UniProt Q15116 25-170, limits assumed)); assay: indirect ELISA, human PD-1 coated at 0.3 µg/mL (FIG. 6a)
T1 construct: Soluble recombinant protein used in BLI and coated in ELISA; also called antigen PD-1

[2] = molecular target: T1, Recombinant human PD-1 (prepared by …); assay: indirect ELISA, human PD-1 coated at 0.3 µg/mL (FIG. 6b)
[3] = molecular target: T1, Recombinant human PD-1 (prepared by …); assay: BLI (Octet RED96e), antibody captured at 5 µg/mL, PD-1 at 210 and 70 nM
[4] = molecular target: T1, Recombinant human PD-1 (prepared by …); assay: competitive ELISA, PD-1 coated, competitor Biotin-PD-L1 hFc at 4.0 µg/mL (FIG. 9a)
[5] = molecular target: T1, Recombinant human PD-1 (prepared by …); assay: competitive ELISA, PD-1 coated, competitor Biotin-PD-L1 hFc at 4.0 µg/mL (FIG. 9b)

- EC50 [1]: 0.00361 µM
- EC50 [2]: 0.0183 µM
- Kd [3]: 0.000584 µM
- koff [3]: 3.93e-05 s⁻¹
- kon [3]: 67300 M⁻¹ s⁻¹
- IC50 [4]: 0.135 µM
- IC50 [5]: 0.255 µM
B1: JS001 (recombinant humanized anti-PD-1 monoclonal antibody reference article, Toripalimab) (antibody, human IgG4 S228P, kappa, V domains shown)
VH: QGQLVQSGAEVKKPGASVKVSCKASGYTFTDYEMHWVRQAPIHGLEWIGVIESETGGTAYNQKFKGRVTITADKSTSTAYMELSSLRSEDTAVYYCAREGITTVATTYYWYFDVWGQGTTVTVSS
VL: DVVMTQSPLSLPVTLGQPASISCRSSQSIVHSNGNTYLEWYLQKPGQSPQLLIYKVSNRFSGVPDRFSGSGSGTDFTLKISRVEAEDVGVYYCFQGSHVPLTFGQGTKLEIKR
notes: also called TAB001; anti-PD-1 monoclonal antibody JS001
